Results published in the domain aggregation screens of Martell et al. (2025).

assay: soluble fraction after stress (log2 fold change); higher = more stays soluble; pooled small domains, quantitative proteomics; settings: stress: pH 4
How it was run: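 Custom libraries of small protein domains were pooled and measured with high-throughput quantitative proteomics after pH 4 stress. The read-out is the fold change in the amount of each domain that stays soluble after the acid stress, taken as a measure of aggregation propensity. Fold changes are on a log2 scale, and higher values mean more of the domain stayed soluble.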

Row | Sequence | soluble fraction (log2)
1 | HMTALSIGTVVRFTGDRHYISSTGDTGYPASPGLAKITSINPGSKHPYHLIHIDNTSNVYGWVNKQDIIT | ≥ 0.43
2 | HMTAQLSITLNGETRRAAAGSIADLVRSLELDPAKVAVERNGLIVPRSTLAEVALGDGDVLEIVHFV | -0.4
3 | HMTASTLSYSKFNEQVVQNQVRKVTFQGEQVKGELISGQTFTTTVPANDTTLWPMLKAHNVDTAVTAA | 0.0376
4 | HMTASVTDAMFELIDELPKLGKTSFRQLTADLVDRLQVVVTFLAVLELYKQGHVELDQSERFGDITVVWTG | -1.11
5 | HMTATIEEVNELTQSARVNINVPYAAKDEAKAYGAKWDDVERTWYTTGENYAQNKDFFDGFNPTAS | -0.132
6 | HMTATWLTYYRIKAGLTQKRLAELAGLNIRQVQKIENGETLAGNTTAKNLLALADALGIDPHKL | -0.381
7 | HMTAYENSIPLNWVIQKGDAKGLPLSANTARLLIDIVGIDLMDLDHELEKISLYLSGESITEEMIKEHIRG | -1.01
8 | HMTDAELDLLTPREQEVLQLIARGYLYKEIARRLGISVKTVEAHASSVLRKLQLSTRHELSHWAAQRH | -0.192
9 | HMTDAYEVLDLNREASDEEIKKRYRELIREHHPDTLIAKGVPQEFVDLANDKMAAINAAYDRIEKDRGL | -0.0939
10 | HMTDEEKENLREKMLEAGFPLLKQYGMTHTSVAKITQAAGIAVGTFYSFWKNKEAYMADLIGYHRR | 0.105
11 | HMTDITSAITRLNKYNKSGTPLTIDSVTPEALQTLQAKVSSAFEIGAVNQQTYDDVTKDIATLQQYLSSA | -0.102
12 | HMTDIVPNLIGKSLKDAIQSVEKSNLKAIFDGHGIVVSQQPRPGSPIPARKIMKVTLSPDYR | 0.135
13 | HMTDKLEEEAKKKAMEDALADEMNISKTIVHDGIRELARIGFLDVISRKGIYVADYTFTGNLETLLAVIRY | -0.0919
14 | HMTDLDDFAARLKTLTDGRASTPRLRDGVMMLSLDVGGLGPDQRDGLIAAIREGGLTVPGVSDVRIVMT | 0.22
15 | HMTDLEDDEKKVYRLIVESGEGIDFDTLSERSGFSATELPSILLFLMMKEMIDELPGKIYRYSE | -0.327
16 | HMTDMYLTYQELRHLGVSQNLISMWKSRKSIDFHMLGGTLYVRYMSIPEQTRSKLALQNVERVYNSRE | 0.0329
17 | HMTDRINIGDVVTIISKDREDSQIVYMRYHKGKLSILGELILNKTKNDTVDFKGRTYDIATIEKS | -0.228
18 | HMTDVHFIDVPVSEGHPWIGLTVKDLNLPPGTLLVFLNHPGEKSTVPNGDTVLREGDVLVLGATAYAG | -1.02
19 | HMTDYKTNLQEFLQQDGEVEIEYKLLAEVGPSHARQFEVDVMMGDRVLGSGVGRNKKAAEQAAAKVALSKL | -0.375
20 | HMTDYVPTIGTKISKDFGSKGYFEGEVVSGPHNVTVEGDNMVVWKVQYEDGDREEMTASEIAHWKA | 0.22
21 | HMTEAIDVPNLVGQNYSDVKSNSSYKFNWDIINVYDSGKPEGEIIKQEPEAGSKKVKENAVITLTVN | -0.0209
22 | HMTEDNDLETIAYDILKERNLNNININVKNGVLNIYGKTETLKEKREIEKILSSLNVSKINNLIKI | ≥ 0.43
23 | HMTEDQDWAIFKQKLKAQTEIDLDLYKEPQMKHRIKNLIQNAGFDSYVQYFDYVYLNQDRLAAFLENLTV | -1.15
24 | HMTEEELLERLDAVITEYKGKPGALIPVLQLAQGIFGYLPEVALKHIARQLDKPYSEVAGVVSFYSFFTT | -0.048
25 | HMTEFDVIMKSFGSEKIKVIKEVRAITGLGLAEAKALVEGVPAKIKEQVSKDDAEALKKQLEAVGAEVEL | -0.76
26 | HMTEFWTGPITTVTKANFADWTLDTNQDRITANVWLTRADSKGLFNITPGKETAFDIVDYLSPLDTEWA | -1.82
27 | HMTEGDRLARRILRLVRNKPNGYPEVELMKATVLDWNHFQRSISSLEMAGILERRDPGDGTPPVWVEKR | -1.11
28 | HMTEKIEWYKEVLDLEPNSKIFFPLAKMLEKEGELEEARRVLAEGVSRHEEFLEARLFYISVLSRL | -1.05

Row | Sequence | soluble fraction (log2)
29 | HMTENLELLATGSLWTEPDGSGKIISYLIPGLRVKKLETNGIFYKIQLQNGLIGWADQSLFTIAEPK | -0.212
30 | HMTENQKNIDLIKIVSLLVHAAKIDENYTNKEKELIINFINNFSKENKQNIKSSEILEEAEKYEK | -0.0377
31 | HMTEPKRIVDHWQPSDDVYDILRMSHIDLDFARSLLPEFIVYWKDSSQTHTSWNSKFLQHAKYHWAKRHQL | -1.21
32 | HMTEPLTKREKEVLLLLPRGLTAKAMASELFLTEATIKSHLAAIFRKFKVVNRTQAIAIAVESKILT | -1.1
33 | HMTESLVITVDPALHGLRLDRGLADALPDRSRSEVQRWIKEGRVQLHGAPAKPSLKLAAGDIVTIALPEE | 0.236
34 | HMTESSTYFEKIGTEISQFKSIPKNIDVIIIEKLIYSGIIKKVDNEENSRVYYILTRKGRYFWKRYVLS | -0.0659
35 | HMTETFVLNLRQPIAAAPVLPGYRVARTDEQTLEVEVSKDQNLNEIFTALSALGVEVLSMRNK | -0.303
36 | HMTFAEADAQYEVIKQQYLAGALDEEQFDEQLHRLMVLDDGGLWWAKSRENGSWHYYDPDREDWIAATP | -0.995
37 | HMTFEAKKGYINADMSVNVRETASTSATVIITLNPNTEVKVVGEENDFYKIEYKEYKGYVAKRLISDSQVQ | -0.142
38 | HMTFPTEAKLTGDKVFVRSGPSTQSQRLTNLAINSVVTVLAREMGDMQYPWYKVRYSDGEGWVYGQYVEAI | 0.122
39 | HMTFTQFAESHGVIIKSLKASDKIQRGPTVAHPKSDNGAWLWDGNRGGVMAWDGDGQWYWFK | -0.108
40 | HMTGEERRMNTADLYRRRGMELFKRKIYVDAIDSLKVSLEYEDNATTRYYLDLATKRYQDLKIS | -0.0891
41 | HMTGETWAERSRALAAAGLIVMGQEAKNKIEDLPSLSPLIEAAAASETRLLTGQIIDELLAFV | -1.04
42 | HMTGIELLSHREHQVYDLLTQGRTVTEIGAQLNLAPNTVSTYRARILEKTGTKNDVELALYAQRH | -0.114
43 | HMTGKASEIAALLEQRIAAGDYPAGSKLPSERELAASFHVSRNTIRDAIALLAARKIVSTKWGAGTVVLG | -0.0946
44 | HMTGLRETIPAALDGERLDRVVALLGDVSRSRASAALEAERVTLDGEVVTLRSHRVREGEELTVAGFE | 0.177
45 | HMTGLSAQILAKLRDNHGVLPVSDKSDPAVISNLFGVSKGNFKKAIGGLYKEGQIVIHADRIEL | 0.302
46 | HMTGLSFEEKDLLGNALKLLDETERRIVILHATSGLKHREIAKQLDIPLPTVLSKYTRAIKKLKKHME | -0.144
47 | HMTGPSYTTRRVEAAETMMEFLRTFPQAAPFIGDLYVKAQDWPLGEEIGDRLKKMLPPQLQE | -0.451
48 | HMTGQVASMVERLAQRLKDQPQDAEGWAMLARSYSVLGRHPEALQAYEKALALRKDDANLLADYADSLA | -0.729
49 | HMTGRHEEAIQELKRTLELHPQKPKIFLLLGVSYLRLNNLKKAVEAFNTVLLLQPKNQKALTMLKEIKKR | -0.113
50 | HMTGSLLVEVQGRPDADRLLGQALVDAGLTARPAGGALIEVEVRDETTPDVVRDLTVDLGLGLVRMQERH | -1.01
51 | HMTGSLRIKHKTYYMLFSWKDESGQWRQKSESTGIPERGGKRKAQEMLNTRLEELQLQSTASL | 0.199
52 | HMTGSLRVTSSPSGAEIYVDEIYRGYTPLTIGSLSTGRHEVRLHLSGYQDYTRTVEIESGSQSSFSVTLT | 0.0547
53 | HMTGSTSVAQVSTPSGSLNLRAYASTSARVLLQIPEYAFVTVYNRGATWSYVSYNGVSGYVMSVYLSFGG | -0.846
54 | HMTGTVKVNSLNVYKSASLDSEVKDTLVLNTKVTIAENGQVTDGIYVWGRLQSGEGYVQMNNLTL | -1.59
55 | HMTHRRLELTLDAIDERLDRALTAAVPELSRMQWQRLIREGLVTVDGERARPSYRIQGGETLVALVPEV | -0.167
